Measured values as given in US20230257436A1 (published 2023).
Values belong to the molecule of their own block, whether it stands above or below them.

Key:
[1] = molecular target: T1, human prosaposin (PSAP) secreted from ARPE-19 cells stably transfected with human PSAP cDNA (human) (UniProt P07602); assay: western blot of purified PGRN/PSAP complexes
T1 sequence: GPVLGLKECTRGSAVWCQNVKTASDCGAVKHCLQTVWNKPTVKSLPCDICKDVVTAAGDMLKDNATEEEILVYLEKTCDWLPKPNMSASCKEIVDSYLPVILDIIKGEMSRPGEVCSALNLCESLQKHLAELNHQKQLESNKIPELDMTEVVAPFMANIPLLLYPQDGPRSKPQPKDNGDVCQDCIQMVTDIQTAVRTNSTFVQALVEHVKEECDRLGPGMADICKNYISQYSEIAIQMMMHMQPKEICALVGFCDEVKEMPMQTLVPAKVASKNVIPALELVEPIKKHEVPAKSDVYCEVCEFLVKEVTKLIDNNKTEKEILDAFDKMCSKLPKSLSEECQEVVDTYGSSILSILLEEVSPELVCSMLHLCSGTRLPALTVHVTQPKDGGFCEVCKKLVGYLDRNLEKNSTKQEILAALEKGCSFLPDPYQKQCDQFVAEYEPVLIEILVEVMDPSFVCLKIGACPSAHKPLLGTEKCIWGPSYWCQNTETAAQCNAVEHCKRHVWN

[2] = molecular target: T2, endogenous human progranulin (PGRN) in human plasma and CSF (human, UniProt P28799 18-593); assay: sandwich ELISA on human plasma and CSF
T2 sequence (looked up): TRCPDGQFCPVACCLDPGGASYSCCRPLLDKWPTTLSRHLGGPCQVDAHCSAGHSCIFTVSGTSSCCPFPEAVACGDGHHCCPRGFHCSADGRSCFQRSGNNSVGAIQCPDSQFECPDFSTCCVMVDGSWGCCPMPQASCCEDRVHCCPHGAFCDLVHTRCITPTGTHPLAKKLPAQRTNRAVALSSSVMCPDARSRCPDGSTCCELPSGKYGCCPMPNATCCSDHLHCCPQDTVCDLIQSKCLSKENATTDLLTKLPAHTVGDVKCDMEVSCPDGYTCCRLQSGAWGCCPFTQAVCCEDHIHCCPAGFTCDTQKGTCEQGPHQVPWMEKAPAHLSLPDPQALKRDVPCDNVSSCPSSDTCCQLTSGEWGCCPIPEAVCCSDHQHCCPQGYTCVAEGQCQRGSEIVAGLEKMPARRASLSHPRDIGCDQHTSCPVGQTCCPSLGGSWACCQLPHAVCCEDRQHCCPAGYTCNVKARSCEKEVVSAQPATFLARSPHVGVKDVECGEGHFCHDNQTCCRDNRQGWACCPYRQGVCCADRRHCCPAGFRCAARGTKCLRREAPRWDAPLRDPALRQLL

[3] = molecular target: T3, commercially available recombinant PGRN (R&D Systems; PGRN-His, cat no. 2420-PG) (UniProt P28799 18-593, limits assumed); assay: mixing in vitro, western blot
T3 construct: The assay is titled 'Human PGRN/PSAP Complex Assay'; not shown: His tag
T3 sequence (looked up): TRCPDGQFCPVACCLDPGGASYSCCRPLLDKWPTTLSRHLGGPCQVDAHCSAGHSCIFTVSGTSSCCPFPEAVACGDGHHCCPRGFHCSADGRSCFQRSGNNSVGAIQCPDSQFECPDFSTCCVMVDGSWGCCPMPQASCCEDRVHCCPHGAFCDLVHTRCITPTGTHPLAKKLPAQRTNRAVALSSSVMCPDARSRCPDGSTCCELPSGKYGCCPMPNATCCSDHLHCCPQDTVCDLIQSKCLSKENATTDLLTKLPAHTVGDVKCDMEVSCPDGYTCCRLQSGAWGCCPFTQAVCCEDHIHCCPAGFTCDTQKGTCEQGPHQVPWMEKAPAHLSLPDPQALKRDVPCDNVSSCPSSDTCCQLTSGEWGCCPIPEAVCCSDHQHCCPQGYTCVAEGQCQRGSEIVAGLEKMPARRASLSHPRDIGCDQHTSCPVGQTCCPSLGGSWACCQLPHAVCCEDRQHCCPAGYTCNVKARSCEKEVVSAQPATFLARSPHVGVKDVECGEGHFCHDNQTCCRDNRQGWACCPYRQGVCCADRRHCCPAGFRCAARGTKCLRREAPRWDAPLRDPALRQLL

- stoichiometry of PGRN and PSAP in the complex (PGRN:PSAP ratio) [1]: 1
Molecule: human progranulin (PGRN) secreted from ARPE-19 cells stably transfected with the human progranulin gene (pT2.CAn.PGRN plasmid) (from UniProt P28799 18-593) (ligand)

- binding result [2]: binds
B1: endogenous human prosaposin (PSAP), as expressed by non-PSAP-transfected ARPE-19 derived cells and as present in human plasma and CSF (ligand, UniProt P07602 17-524, looked up)
chain: GPVLGLKECTRGSAVWCQNVKTASDCGAVKHCLQTVWNKPTVKSLPCDICKDVVTAAGDMLKDNATEEEILVYLEKTCDWLPKPNMSASCKEIVDSYLPVILDIIKGEMSRPGEVCSALNLCESLQKHLAELNHQKQLESNKIPELDMTEVVAPFMANIPLLLYPQDGPRSKPQPKDNGDVCQDCIQMVTDIQTAVRTNSTFVQALVEHVKEECDRLGPGMADICKNYISQYSEIAIQMMMHMQPKEICALVGFCDEVKEMPMQTLVPAKVASKNVIPALELVEPIKKHEVPAKSDVYCEVCEFLVKEVTKLIDNNKTEKEILDAFDKMCSKLPKSLSEECQEVVDTYGSSILSILLEEVSPELVCSMLHLCSGTRLPALTVHVTQPKDGGFCEVCKKLVGYLDRNLEKNSTKQEILAALEKGCSFLPDPYQKQCDQFVAEYEPVLIEILVEVMDPSFVCLKIGACPSAHKPLLGTEKCIWGPSYWCQNTETAAQCNAVEHCKRHVWN

- binding result [3]: binds
B2: human prosaposin (PSAP) secreted from ARPE-19 cells stably transfected with human PSAP cDNA (ligand)
chain: GPVLGLKECTRGSAVWCQNVKTASDCGAVKHCLQTVWNKPTVKSLPCDICKDVVTAAGDMLKDNATEEEILVYLEKTCDWLPKPNMSASCKEIVDSYLPVILDIIKGEMSRPGEVCSALNLCESLQKHLAELNHQKQLESNKIPELDMTEVVAPFMANIPLLLYPQDGPRSKPQPKDNGDVCQDCIQMVTDIQTAVRTNSTFVQALVEHVKEECDRLGPGMADICKNYISQYSEIAIQMMMHMQPKEICALVGFCDEVKEMPMQTLVPAKVASKNVIPALELVEPIKKHEVPAKSDVYCEVCEFLVKEVTKLIDNNKTEKEILDAFDKMCSKLPKSLSEECQEVVDTYGSSILSILLEEVSPELVCSMLHLCSGTRLPALTVHVTQPKDGGFCEVCKKLVGYLDRNLEKNSTKQEILAALEKGCSFLPDPYQKQCDQFVAEYEPVLIEILVEVMDPSFVCLKIGACPSAHKPLLGTEKCIWGPSYWCQNTETAAQCNAVEHCKRHVWN
notes: The protein was secreted into conditioned medium; no signal peptide limits are stated; also called ARPE-PSAP; PSAP (#7)
